Read-outs that look alike come from different tables or passages of the source. One block for each molecule: values may come before it.
Key:
[1] = target: T1, LMW-PTP (LMW-PTPB) (Homo sapiens, UniProt P24666, L14R/I17K, form not given); assay: malachite green phosphate release, Michaelis-Menten fit; type: biochemical; details: pH 5.5, 37 °C, diC8 lipid
T1 construct: gene ACP1; N-terminal 6xHis tag (pNIC28a-Bsa4, TEV-cleavable; cleavage described only for crystallisation); E. coli BL21-DE3
T1 sequence (P24666 1-158 isoform P24666-2 L14R/I17K): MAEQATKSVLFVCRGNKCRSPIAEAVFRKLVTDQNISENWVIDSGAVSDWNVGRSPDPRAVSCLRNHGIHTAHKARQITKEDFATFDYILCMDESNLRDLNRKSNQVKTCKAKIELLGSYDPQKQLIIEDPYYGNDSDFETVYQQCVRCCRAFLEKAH
Description: (§1) malachite green phosphate release, Michaelis-Menten fit on LMW-PTP (LMW-PTPB)

[2] = target: T1, LMW-PTP (LMW-PTPB); assay: pNPP assay, Michaelis-Menten fit; type: biochemical; details: pH 5.5, 37 °C; read-out: RK / Km
Description: (§2) pNPP assay, Michaelis-Menten fit on LMW-PTP (LMW-PTPB)

[3] = target: T2, LMW-PTP (LMW-PTPB) (Homo sapiens, UniProt P24666, L14R/I17T, form not given); assay: malachite green phosphate release, Michaelis-Menten fit; type: biochemical; details: pH 5.5, 37 °C, diC8 lipid
T2 construct: gene ACP1; N-terminal 6xHis tag (pNIC28a-Bsa4, TEV-cleavable; cleavage described only for crystallisation); E. coli BL21-DE3
T2 sequence (P24666 1-158 isoform P24666-2 L14R/I17T): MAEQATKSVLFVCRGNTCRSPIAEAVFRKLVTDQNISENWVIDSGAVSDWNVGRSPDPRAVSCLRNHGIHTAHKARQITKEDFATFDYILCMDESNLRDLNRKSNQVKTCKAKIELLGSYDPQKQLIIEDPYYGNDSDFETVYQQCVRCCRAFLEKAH
Description: as §1

[4] = substrate: CCCCCCCC(=O)OC[C@H](COP(=O)(O)O[C@@H]1[C@H](O)[C@H](OP(=O)(O)O)[C@@H](O)[C@H](OP(=O)(O)O)[C@H]1O)OC(=O)CCCCCCC; assay: as above; type: biochemical, Homo sapiens; details: pH 7.5, 37 °C, diC8 lipid
Description: malachite green phosphate release, Michaelis-Menten fit on MTMR2

[5] = substrate: N[C@@H](Cc1ccc(OP(=O)(O)O)cc1)C(=O)O; assay: as above; type: biochemical, Homo sapiens; details: pH 5.5, 37 °C
Description: as §1

[6] = substrate: O=[N+]([O-])c1ccc(OP(=O)(O)O)cc1; assay: pNPP assay, Michaelis-Menten fit; type: biochemical, Homo sapiens; details: pH 5.5, 37 °C
Description: as §2

Km ([1]; read-out: RK / Km): 22.9 ± 5 µM
Molecule: CCCCCCCC(=O)OC[C@H](COP(=O)(O)O[C@@H]1[C@H](O)[C@H](OP(=O)(O)O)[C@@H](O)[C@H](O)[C@H]1O)OC(=O)CCCCCCC [PI(3)P]

Km [2]: 1390 ± 105 µM
Molecule: O=[N+]([O-])c1ccc(OP(=O)(O)O)cc1 [pNPP]

Km ([3]; read-out: RT / Km): 29.2 ± 3.7 µM
Km ([3]; read-out: RTK / Km): 26.2 ± 3.9 µM
Km ([1]; read-out: RK / Km): 35.9 ± 6.3 µM
Km ([1]; read-out: RKK / Km): 27.2 ± 7 µM
Molecule: CCCCCCCC(=O)OC[C@H](COP(=O)(O)O[C@H]1[C@H](O)[C@@H](OP(=O)(O)O)[C@H](O)[C@@H](O)[C@H]1O)OC(=O)CCCCCCC [PI(5)P]

Km ([1]; read-out: RK / Km): 30.7 ± 3.5 µM
Molecule: CCCCCCCC(=O)OC[C@H](COP(=O)(O)O[C@H]1[C@H](O)[C@@H](O)[C@H](OP(=O)(O)O)[C@@H](O)[C@H]1O)OC(=O)CCCCCCC [PI(4)P]

B1: MTMR2 (Homo sapiens) (protein)
chain: MEKSSSCESLGSQPAAARPPSVDSLSSASTSHSENSVHTKSASVVSSDSISTSADNFSPDLRVLRESNKLAEMEEPPLLPGENIKDMAKDVTYICPFTGAVRGTLTVTNYRLYFKSMERDPPFVLDASLGVINRVEKIGGASSRGENSYGLETVCKDIRNLRFAHKPEGRTRRSIFENLMKYAFPVSNNLPLFAFEYKEVFPENGWKLYDPLLEYRRQGIPNESWRITKINERYELCDTYPALLVVPANIPDEELKRVASFRSRGRIPVLSWIHPESQATITRCSQPMVGVSGKRSKEDEKYLQAIMDSNAQSHKIFIFDARPSVNAVANKAKGGGYESEDAYQNAELVFLDIHNIHVMRESLRKLKEIVYPNIEETHWLSNLESTHWLEHIKLILAGALRIADKVESGKTSVVVHCSDGWDRTAQLTSLAMLMLDGYYRTIRGFEVLVEKEWLSFGHRFQLRVGHGDKNHADADRSPVFLQFIDCVWQMTRQFPTAFEFNEYFLITILDHLYSCLFGTFLCNSEQQRGKENLPKRTVSLWSYINSQLEDFTNPLYGSYSNHVLYPVASMRHLELWVGYYIRWNPRMKPQEPIHNRYKELLAKRAELQKKVEELQREISNRSTSSSERASSPAQCVTPVQTVV
notes: E. coli BL21-DE3
Km [4]: 62 ± 4 µM
kcat [4]: 348 ± 17 x 10^-3 s^-1

B2: LMW-PTP (LMW-PTPB) (Homo sapiens) (protein)
chain: MAEQATKSVLFVCLGNICRSPIAEAVFRKLVTDQNISENWVIDSGAVSDWNVGRSPDPRAVSCLRNHGIHTAHKARQITKEDFATFDYILCMDESNLRDLNRKSNQVKTCKAKIELLGSYDPQKQLIIEDPYYGNDSDFETVYQQCVRCCRAFLEKAH
notes: N-terminal 6xHis tag (pNIC28a-Bsa4, TEV-cleavable; cleavage described only for crystallisation); E. coli BL21-DE3
Km [5]: 307 ± 29 µM
kcat [5]: 0.000226 ± 1.9e-05 s⁻¹
kcat/Km [5]: 0.735 ± 0.054 M⁻¹ s⁻¹
Km [6]: 476 ± 30.2 µM
kcat [6]: 6.03 ± 0.106 s⁻¹
kcat/Km [6]: 12700 ± 670 M⁻¹ s⁻¹

From article PMC7316235, “Computational and structure-guided design of phosphoinositide substrate specificity into the tyrosine specific LMW-PTP enzyme” (PLoS ONE, 2020)
